Results as given in the DeepSol protein solubility set.

Test: soluble on expression in E. coli; label from the status in PepcDB or PDB records

| Sequence | soluble on expression in E. coli |
| --- | --- |
| MAHHHHHHMPGRPGSAEELYGLVCALQKQQQLTQVDLRAVQRRTEALRQELHCQEALIAEEQAKREELAAKHTPGDAELRLAEAHARGAARASADAAQELRGARRAFLQKCHAQVLSVGKGPTDPRRSGAPVAPSNCTPLSSAADESSSGSLSAVGLGPRREATLMPAAAVRQLLLLLREKLMRCIEVGSTAVPAPFVVASVVAPATEGGSSEQPRDCRPSDEQGAAAKVATSVMSPLTAAKSPHGPPSKSVTDACVRGASDDQSPPREKKSIGFAPECCFERVTAVPAANVNRGTRETWLTEGAPGACGSTAVVPPAANVTLDGDNHPSNACLRNDSRPRTQRFDGHFTVRVASRSATLVAEAAAMGAKRQRASEAAIAAQSSPPKAARADGDKGVSASRAPQGAGVAAAFPPAYTSNRDRLVAPVDLLSPRSAEARRNGSSGSGRRTVWTWTRGTSREP | not soluble |
| MAHHHHHHMPLPPVESGPAAMTRRNFLVEMNRLRVSQYMPTRKQLEEEDLRIATIRQEEKRAKHAEWAESRRKAADSYNAAGTNSGRPLPGSVSRSMRASGKGKPAENTYKLEKEEEAAKKREYNRLYEQEAKHQLAIRQATLKQMHDDEVRQMEALRKVNEEEDRKVAEAHAQAMEEERQYMERLKQSNKRELAARKAEQQAKEARDRQLQELVNENNRHRAEMDERRLKNVTRMLHLQNEQFHREAMMSKKASEAKHYEEVAATEERNRRLTKEEQEAAQRKKEQFRQDFEDCIARDKEFRRTHNYDEPMEVTRQRNELAAQSYRLVLEEERLQNAERRQQYRKDLMDQIMAKQTYRMTHLDEAGI | not soluble |
| MAHHHHHHMPRPEILASCHQTLENCLIESTRNSMDATNKAMLESVAAEMMSVSDGVMRLPLFLAMILPVQLGAATADACTFIPVTRDQSDIYEVFNVAGSSFGSYAAGDVLDMQSVGVYSQLRRRYVLVASSDGTSKTATFKMEDFEGQNVPIRKGRTNIYVNRIKSVVDNGSGSLLHSFTNAAGEQITVTCSLNYNIGQIALSFSKAPDKGTEIAIETEINIEAAPELIPLINHEMKKYTLFPSQFVIAAEHTVQAAYEAQREFGLDLGSLQFRTLKEYLSHEQDMLRLRIMIWRTLATDTFDIALPVNQSFDVWATIIRGKFQTVYRDIIERVKSSGAMGMFAGADAASFFKQLPKDFFQPAEDYIQTPYVHYIGTPFRTTHST | not soluble |
| MAHHHHHHMPVPVLLDNYAYFILSCKTKRCAVVDPADPTLVLNMLEVVRNLTQIDFMITDILTTHKHWDHAGGNMEMRALSQCSSERCRALLSPELNIYGSEVDRPHACNKLIKGSDELVVAGGGAKVVVLSTPGHTGGSVMFLVGDALPKEGEPQRLALFTGDCVFCGGCGALFEATSVDETLETVDIFNNNRTWVHPATGDIIHTDDVLIYVGHEYTERSLDMILSVQRTANQTGEQSAIATSNYCDTVAQARNGARRLRSCVVADDVYMKVTSMETKAPLHLRACTVPSTVTIEKKVNALLSLKRCVLEEFQGKPYASMAVQRAIYTSTKRNDTG | not soluble |
| MAHHHHHHMQPLLRVPRAVHPHVERPLLGYLPPPVSHFSTKRNNCTGYDHPRGAPPQLNKTYHSQANFRDTKMEFCQVDLDEFCYKQFDSTKKSCSFIPYDKNEFLDKVNELIRQKKIKVVPGYAGFCKHIFVENFTEATVETIEINNKNRDLIKTDYISRRDNELPVLIRWISKKDVKDIIKAKYLDLILYSREQIEKENKETKTVPNRKSNCLYSIICIKPQNVDYELPMTPITMLRNTLISEGGSGINLNRDKYLESVKYWRHHVSIIDN | soluble |
| MAHHHHHHMRASERVPADDAATRVCPHSLIDSPSPSLMQAASAVATATATSSGIANLKQEASHEERLKVADHTAVKAWSLLNKMWYPDYHMASLAGWMGVPGGLCYHNGFYHVFYQYNPFSENWGPMHWGHMTSEDLVHWQHQPIALAPGELFDHDGCFSGSSVSYNNKLYIFYTGHTWRTESEKGSGNGTMGDGASFYQQQCVAVSSDGVNFEKLGAVVRPPPGYVHFRDPKVWQQDGRWWMVCGARDVTKDLGQLLLFTTEDLLKWDDTNWQVLGMTEDKNVFMWECPDMFRLGQMNVFLYSPQGMRKADYAYRNRFQSGYLLGSWNMSLVTAALSEREAGSPKGTASGSHAIGGPRWLASFDVTQRFREIDRGHDFYAPQTLLTKDGRRLIIGWMDMWESPMPTRGHGWSGCLTLPRELILDPFTGSVRMVPPKELLQLRCAQATILAQRIQESTDVLLVESCTAYELDIAFNMETSTAEKYGLWLGSGAELYVDAQSKRLVLNRHYPQHMLSGYRSCELPIGLLLQLHVFIDRSSIEVFVNNGEATFSSRVFPDEGDRALRVFSVNGTADMVGGTMWKLKATVRH | not soluble |
| MAHHHHHHMRHMCVTLKRRACTVSFSPFLMSYFQSMLMPYRDSVRSSKSDKASSRTVNEEAKVSLSAFSFLFSEMCTRAHNTPSKASNVEEIEQRLTSLGVLVGARLIMLSSLKDPLELQRRPITIEGALKLFQDKLWSRWFGKPANDLQRETGSDRFFIFDTEPIVLRYVYPSPEYLDGEGRWSINYASFMGGIVEGALKAIGFAAEVLTYHQPEPSKPHQSIFAISFAKHVWDRERRLRG | not soluble |
| MAHHHHHHMRKAVRALQRRASQQAREVAVAANDMDGETATTQRPSFSLFWVQLTQAKVDVVLPPAQPPTPSAEVEAEEESETAERAAHAGHGGSRDTASAHTAAQFRRVHDTNRRVLRIIEACPDETLIVVLAGRCDGEAGGNHFSRAQGTCFAFVKDSSAPGPRPEELTKLTDENNVSALPRASAGGAAVDNIPLQDASALSTAAVPHSVDRETAMVEHTPLACQQQ | soluble |
| MAHHHHHHMRKGKSPSSFFSLHKKYLLTGVTILSFIFMFQYKYHEVLTVYEDKTNVQQSSRLFWTRLLFGRTRSRITGRIFNIEIPHSYRLYVYNFFIKYLNINKEEIKYPIESYKSLGDFFSRYIREDTRPIGDLNEYSIVSPCDSEIVDFGELTSNYLDNVKGIKFNIKTFLGSDMIKKYNDDSTSFYYAIFYLSPKKYHHFHAPFNFKYKIRRHISGEVFPVFQGMFKIINNLFDINERVILSGEWKGGHVYYAAISAYNVGNIKIVNDEDLLTNNLRTQLSYMGGDINTKIYDHYKDLEIGDEVGEFKVGSSIIVIFENKKNFKWNVKPNQQISVGERIGGVDQPKQPKNKFIKIRS | soluble |
| MAHHHHHHMRKKLVLPLSIGRGFSSWDDGSDGHEWKSRALAEKRLLALTYLGDVNKRVQIHDAIRLRGEVNKQAIRACELPTFFQTKETNEAENLQEIDYHSLLSMIEGEFEVDTLAHIAPSDANFLKTEFLQCDDSAEVKLLGQWSNLRRDTADYNNYASIPDGERNAWSAWYLRNVRPGKTEND | not soluble |
| MAHHHHHHMRPVIVMLLHEEQDTGAYMIKYLVTRGMDFVMFRCWEERVASLVPKAAGETIRCLPVANKPHHYVPCLVNSTAAPSTESESLVTTSTSLAPVSSNVAEDCRIRAVASFGGSMSVNDELSYFESIRSLMRSCLEKRIPVIGHCLGGQLLSSALGGRIVLSENIEVGWYEMVVEEAEDVKDWFGGRKRFDAFHIHTDSFTIPQGARRIVTGAYCANQAFQVGDQFALGMQFHPEVDEDKVRSLISSQFPTLYTEEELADILRKGAEGAKTPDGRPLVSPGSMTRECIEKCLREGRIEQNRPIADSIYDTWCSGFLF | not soluble |
| MAHHHHHHMRRVERSSRGEGEDTLATGEANVRTDTTVDVLRRASRHAQGAIETSWMTTRRLQVQGEQLEEIDRALDKMEHDLGVGDDALRRMTWTGRVKRWFTSRRKQPSDGVESSTSSSVPSSSLPIKPQGLREKNQQREGTRGSKRDDVIGCGSSTSHIAMEEEKLLDALLGDVHAMREQATLQGAMLTEHNRRLDVIATKTDAVHNHVNRTKQKVEKML | soluble |
| MAHHHHHHMRRVVASRKAICEYRLYSQVSPQGYPVTAVTPQQIRRVPFYRHRKLYDLTTRELSEEAIRDFLPPKPAVPAGWSMEHKIGSCRFDLTKTMGADDSAREDLHVVALMEPKKYEQTYRMDNGERNGEEYLVFNLFIKKHQHSGGVEFGLTSIDMELVMDSLVVHSTDREMDYSIGALGPGKTTSVGTSFGQKLNIECRRCRDYRYRGPMLNELDDDLTDEILDYLDERGVNNGFAEYMMAQAHFLEQEEYLNWLRLLKQFAT | not soluble |
| MAHHHHHHMSANGKISVPEAVVNWLFKVIQPIYNDGRTTFHDSLALLDNFHSLRPRTRVFTHSDGTPQLLLSIYGTISTGEDGSSPHSIPVIMWVPSMYPVKPPFISINLENFDMNTISSSLPIQEYIDSNGWIALPILHCWDPAAMNLIMVVQELMSLLHEPPQDQAP | soluble |
| MAHHHHHHMSDSALLEGVSFPVEPFAEKHRKILALLAHAATQAVNTRSNEVVFDVLCSSEPSLARLYPEVAVLQGVHQIRRVLRNLQDSQPHVRPMYLKMIVDSLKDMNEMLPDPLLLVIARTVEILEGEGRGFRELEPHLLDLVEYIQVVILRETKLLQCRGTLITLRLRGVPPFVASETESTT | not soluble |
| MAHHHHHHMSELQSLTPETAFTVASTFLAYYYSEFVKLNELARMSDLYDERSYMTLVDFRDEVPVVAHGRNAVANLLAKLDSTLGQRKVEIITVDTVALPHNCVQVICQGVMYLREYRRVFLHVFMLEPTAYRTKTYHIASDYLRFVDSEKEVIPEGAVVIAADQVAAYLEESRRRVEEEQRRQLLEFQQRIRLQQQQLQMQQQQQQQKAAAMNMPAPASRQSRPAASASRDGGRPARGERKPREPRENRGERKPREPREPRGEHKPREGEEKVAAASPSRLAGEGKKGGERGNRKPAAAANAAKGTADTAAATPAPAAVRKPRRESGPTAAIIMLRVPKKIKLSDIKAELVSQGFSELKDLFWCGRDSAHAVVKFSTVEKATEAFETKPFKIQGESLNLDYYHE | soluble |
| MAHHHHHHMSFFRMKRRLNFVVKRGIEELWENSFLDNNVDMKKIEYSKTGDAWPCVLLRKKSFEDLHKLYYICLKEKNKLLGEQYFHLQNSTKMLQHGRLKKVKLTMKRILTVLSRRAIHDQCLRAKDMLKKQEEREFYEIQKFKLNEQLLCLKHKMNILKKYNSFSLEQISLTFSIKKIENKIQQIDIILNPLRKETMYLLIPHFKYQRKYSDLPGFISWKKQNIIALRNNMSKLHRLY | not soluble |
| MAHHHHHHMSKSDLFNDAQVPMRATVLRFGDDVEGASYPEAALTIDDAAVPAEAKVEVYHDGDNSGSAHESVPHHAQDLRHDFTSGILNCHESCAVCLDACLCMYCTASAHHNFLMNDTEGLYLPVCWGLFCVDVGLSAVSSYLPSSLHFHTYFMRSAIRRRYNLHSAGAPVNSNTHGSSSSGCDCTTESMLDLLTVCFCLPCAIAQHQREIMHQGDWCGGVFSNRYSLQTPATVHTI | not soluble |
| MAHHHHHHMSKSIAVIAAGAPAALVQAASAMVSKATGGAVKAMQATSAASNAIVVGMQAPRGVYACVAEPPSTASGPYAGVKTVVVRAILPRRAPDTMQVRDILDVYPASGITCEQETAEAVESFSKAAKVAVEKAKAMKATRVTLVMKPATKYERLNSLFRETCTKTIEAAGLSVETATTAAATNTLIMFPEKMSVVMVSDDPVCENVQYAFAGVVGGAHTTYYTDAGSTIHGGHSYKSVAMALAEELKSLGMKAEAAKVEAAAQKSPRNAAAAM | not soluble |
| MAHHHHHHMSLEPTLRDLLHSKLQWIFVGGKGGVGKTTTSCALATLFASTPVHDAVTNTTRPRRVLLISTDPAHNLSDAFSQKFGKTPVPVNGMEETLFAMEVDPTTFTHGGFGAMLGFPGHIATDADAPSPFAALGNILKEAAGTLPGIDELSVFAEILRGVQQLSYDVVIFDTAPTGHTLRLLALPHTLNSTMEKLLSVEGLNTLIQAASAVLSSTTNLGDMSSLMPAFKQWRENVQEVQRQFTDAEKTAFICVCIPEFLSVYETERLVQELMKYDISCDSIVVNQLVLKPSSEPDCRMCNARQKIQSKYLAQIDSLYEDFHVVKMPLLSDEVRGVPALQRFAQFLLEPYDADRHGYIDVCGAAS | soluble |
